Ends that are not written are not given here. Peptide text beside a SMILES is read from it.
Key:
avian ATIC (AICAR Tfase) = biological target: T1, avian ATIC (AICAR Tfase) (Gallus gallus, UniProt P31335); assay: AICAR Tfase assay
T1 sequence (P31335 1-593): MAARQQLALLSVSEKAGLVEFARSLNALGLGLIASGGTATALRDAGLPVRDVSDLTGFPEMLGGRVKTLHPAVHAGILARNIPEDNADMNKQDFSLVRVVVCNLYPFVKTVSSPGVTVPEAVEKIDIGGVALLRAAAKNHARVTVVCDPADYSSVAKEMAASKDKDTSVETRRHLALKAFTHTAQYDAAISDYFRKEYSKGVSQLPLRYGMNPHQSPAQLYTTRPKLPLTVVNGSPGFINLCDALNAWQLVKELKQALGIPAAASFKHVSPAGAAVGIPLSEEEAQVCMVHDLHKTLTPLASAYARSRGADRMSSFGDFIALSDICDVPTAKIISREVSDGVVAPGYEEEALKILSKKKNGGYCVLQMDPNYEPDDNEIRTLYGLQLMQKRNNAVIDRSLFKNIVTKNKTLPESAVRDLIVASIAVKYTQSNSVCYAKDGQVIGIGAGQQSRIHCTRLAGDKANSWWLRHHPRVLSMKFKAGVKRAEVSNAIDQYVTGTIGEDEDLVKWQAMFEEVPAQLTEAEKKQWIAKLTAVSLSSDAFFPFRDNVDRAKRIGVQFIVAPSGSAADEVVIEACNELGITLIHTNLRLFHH
Protocol: All assays were performed using a Varian Cary 100 Spectrometer. All reaction mixtures were 500 μl in volume and carried out in 1 cm pathlength quartz cuvettes at 25° C. The enzyme used in all of the inhibition studies was avian ATIC, fused to a N-terminal 6× histidine tag to facilitate purification. […] The peptides were dissolved in DMSO to a final concentration of 2.5 mM.
84 nM of ATIC, 50 μM of 10-f-THF and various quantities of inhibitor were mixed in the assay buffer (32.5 mM Tris-HCl, 25 mM KCl, pH 7.4). The mixture was incubated at 25° C. for 2 min before initiating the reaction by addition of 20 μM AICAR. The reaction was monitored by measuring the increase in absorbance due to formation of tetrahydrofolate at 298 nm.
The peptides were assumed to be competing with f-10-THF, which binds to ATIC and stabilizes its dimerization.

ATIC homodimer = biological target: T2, ATIC homodimer (Gallus gallus, UniProt P31335); assay: ATIC RTHS ranking by spotting serial dilutions on selective media; type: cell-based; settings: cyclic peptides in order of biological activity (1 = most active)
T2 construct: expressed in transfected cells; host or cells: E. coli RTHS strain with the ATIC fusion integrated on the chromosome
T2 sequence (P31335 1-593): T1 sequence (P31335 1-593)
Protocol: ATIC was cloned as a fusion with the bacteriophage 434 repressor DNA binding domain (into pTHCP16, FIG. 1B) such that expression of the repressor-ATIC fusion placed under control of an isopropyl β-D-thiogalactoside (IPTG) inducible promoter. […] In order to improve selection conditions, a new RTHS strain was constructed by integrating the ATIC fusion onto the chromosome. The level of IPTG giving optimal repression was determined to be 50 μM by β-galactosidase assays.
The first SICLOPPS library transformed into the selection strain encoded a hexapeptide with five random residues and a cysteine nucleophile. Approximately 10^7 transformants were plated onto histidine-free minimal media supplemented with arabinose, (inducer for SICLOPPS) 3-amino-1,2,4-triazole (3-AT, competitive inhibitor of HIS3 product) and kanamycin at a density of 10^6 per plate (100×15 mm). The plates were incubated until colonies were readily visible (approximately one in 10^5). A second library encoding an octapeptide with five random residues and an invariable SGW motif was also tested (not shown). Around 200 colonies were picked and screened for arabinose dependent growth advantage and IPTG dependent inhibition of growth to eliminate false positives. The expected phenotype was further confirmed by isolating and retransforming the selected SICLOPPS plasmids into the selection strain. The 14 remaining cyclic peptides were then ranked for activity by spotting serial dilutions of the corresponding cells onto selective media, allowing the conferred growth advantage to be compared at each dilution level.
SICLOPPS libraries were transformed into E. coli strains containing integrated reporter and repressor constructs. Transformants were washed with minimal media A and plated on minimal media A supplemented with 13 μM L-(+)-arabinose, 2.5 mM 3-amino-1,2,4-triazole, 25 μM kanamycin and 50 μM IPTG. After incubation at 37° C. for 3-4 days, surviving colonies were restreaked onto the same media with and without arabinose. Plasmids from selected strains whose growth depended on the presence of arabinose were retransformed into the original selection strain and checked for phenotype retention. The variable insert regions on SICLOPPS plasmids were PCR-amplified, and their DNA sequence determined.

ribonucleotide reductase = biological target: T3, ribonucleotide reductase (Mus musculus, UniProt P07742+P11157); assay: RTHS β-galactosidase (lacZ) assay, ribonucleotide reductase fusion in strain SNS126; type: cell-based, murine; settings: for Effect on the lacZ reporter upon arabinose induction: arabinose induction of peptide expression; for Effect on the lacZ reporter upon arabinose induction / lacZ repression relief: 100 μM IPTG; for lacZ repression relief: background level of peptide expression
T3 construct: expressed in transfected cells; host or cells: E. coli strain SNS126 (integrated via pAH68)
T3 sequence (P07742 1-792): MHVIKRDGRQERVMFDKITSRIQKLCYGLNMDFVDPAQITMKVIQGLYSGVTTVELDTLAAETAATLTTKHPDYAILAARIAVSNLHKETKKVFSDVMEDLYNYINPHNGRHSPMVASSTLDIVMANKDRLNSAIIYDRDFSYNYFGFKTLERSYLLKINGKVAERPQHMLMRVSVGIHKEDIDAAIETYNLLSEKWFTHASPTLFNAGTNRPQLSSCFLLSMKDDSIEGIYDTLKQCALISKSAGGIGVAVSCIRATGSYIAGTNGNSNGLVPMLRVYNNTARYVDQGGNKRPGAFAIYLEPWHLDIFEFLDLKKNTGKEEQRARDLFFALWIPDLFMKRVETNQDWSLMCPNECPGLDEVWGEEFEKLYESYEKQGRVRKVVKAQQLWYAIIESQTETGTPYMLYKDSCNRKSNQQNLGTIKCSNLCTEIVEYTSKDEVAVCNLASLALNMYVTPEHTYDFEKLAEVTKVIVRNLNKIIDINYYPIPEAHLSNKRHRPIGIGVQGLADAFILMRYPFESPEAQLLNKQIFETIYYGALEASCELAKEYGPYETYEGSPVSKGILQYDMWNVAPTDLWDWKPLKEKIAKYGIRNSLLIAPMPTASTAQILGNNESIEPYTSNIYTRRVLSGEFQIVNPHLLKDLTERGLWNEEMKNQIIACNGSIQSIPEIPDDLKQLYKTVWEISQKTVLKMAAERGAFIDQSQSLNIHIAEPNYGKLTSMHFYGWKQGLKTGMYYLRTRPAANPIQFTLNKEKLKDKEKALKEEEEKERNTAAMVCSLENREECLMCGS
T3 sequence (P11157 1-390): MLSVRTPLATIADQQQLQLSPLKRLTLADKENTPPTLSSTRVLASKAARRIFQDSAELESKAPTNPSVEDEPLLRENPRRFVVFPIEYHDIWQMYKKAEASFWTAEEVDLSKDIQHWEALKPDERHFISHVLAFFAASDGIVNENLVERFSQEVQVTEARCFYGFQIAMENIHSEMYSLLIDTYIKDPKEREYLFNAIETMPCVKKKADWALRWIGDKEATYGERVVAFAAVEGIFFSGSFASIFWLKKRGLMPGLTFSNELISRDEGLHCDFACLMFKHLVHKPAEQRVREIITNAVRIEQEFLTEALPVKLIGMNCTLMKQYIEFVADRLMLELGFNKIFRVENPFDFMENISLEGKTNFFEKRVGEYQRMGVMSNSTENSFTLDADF
Source text: FIG. 4 has two graphs (A and B) of β-galactosidase assays showing the effect of linear peptide inhibitors on the oligomeric state of HIV-1 protease and ribonucleotide reductase.
Positive (unrepressed strain) and negative (SICLOPPS control plasmid) controls are provided as reference points. […] FIG. 7C is a graph of competition ELISA results that compare the binding affinity of the four linear peptides with P8 control. FIG. 7D illustrates an exemplary solid phase synthesis of cyclic peptides. First, an activated disulfide resin is prepared through the protection of the thiol group of 3-mercaptopropionic acid, followed by coupling to an amino-PEGA resin. Next, a linear peptide is attached via a cysteine residue and cyclized with 1-ethyl-3-(3′-dimethylaminopropyl)carbodiimide (EDC) and 1-hydroxy-7-azabenzotriazole (HOAt) in DMF. Finally, reductive cleavage with tris-2-carboxyethylphosphine (TCEP) releases the cyclized peptide.
pTHCP30. […] ribonucleotide reductase subunit R1 was PCR amplified from a Bacuolovirus expression plasmid [Caras et al. (1985) J. Biol. Chem. 260:7015-7022] and cloned into SalI and SacI sites on pTHCP14, and subunit R2 was PCR amplified from pET3a-R2 and cloned onto pTHCP14-R1 plasmid at XhoI and KpnI sites [Mann et al. (1991) Biochemistry 30:1939-1947].
Overlapping oligonucleotides encoding […] (methionine plus eight R2 subunit C-terminal residues) (SEQ ID:15) were cloned into NcoI and XbaI sites on arabinose expression plasmid pAR [Perez-Perez et al. (1995) Gene 158:141-142].
Towards this goal, both enzyme complexes were probed with known linear peptidic inhibitors. These peptides are a C-terminal hexapeptide (FIG. 4A, pHIV16) for HIV protease that inhibits the essential β-sheet interactions [Schramm al. (1996) Antiviral Res. 30:155-170], and a heptapeptide for ribonucleotide reductase (pTHCP35, FIG. 4B) that competes with binding between subunits mR1 and mR2 [Yang et al. (1990) FEBS Lett. 272:61-64].
To address non-specific effects of selectants on host growth rates, three of the selective peptides (RR93, RR127, RR130) and the less discriminating RR133 were subjected to quantitative expression studies using the lacZ reporter of the RTHS. […] These studies necessitated in vitro analysis to decipher the inhibition mechanism of these four selectants.

[1] = biological target: T4, ribonucleotide reductase large subunit (mR1) (Mus musculus, UniProt P07742); assay: Immobilized peptide binding/competition ELISA with mR1; parameters: species or system murine; settings: P8 immobilized on maleimide plates
T4 construct: made in house; host or cells: E. coli BL21(λDE3) Rosetta, pET28a-MR1
T4 sequence (P07742 1-792): T3 sequence (P07742 1-792)
Protocol: (§1) FIG. 8B provides the results of an immobilized P8 ELISA.
(§2) Two variations of solid phase binding assays were used for analyzing the binding of peptide inhibitors to ribonucleotide reductase subunits: i) protein competition ELISA where peptides were competing with mR1 for binding to immobilized mR2, ii) binding and competition ELISA with covalently immobilized ligands. In general, the solid phase assays were performed in microtiter plates (MaxiSorp, Nunc) or strip units (Reacti-Bind™ Maleimide Activated Clear Strip Plates, Pierce) involving continuous agitation in Junior Orbit Shaker (Lab-line Instruments) at medium speed during all of the incubation steps. Sample volumes were 100 μL, unless specified otherwise. Following coating, blocking step was conducted by incubating pre-loaded wells with 5% bovine serum albumin in PBS for 1 h at room temperature. Wash procedures between any two successive incubations involved three washes with 200 μL of 0.5% Tween-20 in PBS (PBST), with the second wash involving a 5 min incubation. Detection of His-tagged proteins was performed with Ni·NTA-HRP conjugate (Qiagen) according to the manufacturer instructions.
(§3) Peptides (200 nmol per well) in 10% DMF/50 mM Tris·HCl (pH 7.5) with 1 mM TCEP were reacted for 2 h at room temperature with maleimide-derivatized polystyrene wells. The unreacted sites were blocked by incubating wells with 5 μM cysteine in 50 mM Tris·HCl (pH 7.5) for 30 min. Following washing and blocking steps, the wells were incubated with His-tagged mR1 or mR2 in the presence or absence of inhibitors. The retained protein was detected via Ni·NTA-HRP conjugate.
(§4) To determine the mechanism of action of the four identified sequences an alternative assay format was devised (FIG. 8A), where a peptide with a residual activity in its immobilized form can serve as a specific ligand for receptor capture in both binding and competition ELISA. The success of such an assay relies on both efficient peptide immobilization strategy and sufficient level of affinity, uncompromised by this display strategy. The peptide immobilization becomes feasible through implementation of a cysteine, a nucleophile used in splicing, as a universal chemoselective handle allowing covalent attachment strategy through a suitable electrophile. Chemoselective attachment of such peptides on appropriately derivatized surfaces should both display the small molecules for detection with a suitable protein receptor and allow binding site competition analysis, not unlike in a traditional immunosorbent format.

[2] = biological target: T5, ribonucleotide reductase small subunit (mR2) (Mus musculus, UniProt P11157); assay: Immobilized c-RR130 binding/competition ELISA with mR2; parameters: species or system murine; settings: data not shown
T5 construct: made in house; host or cells: E. coli BL21(λDE3), pET28a-MR2
T5 sequence (P11157 1-390): T3 sequence (P11157 1-390)
Protocol: as §1, §2, §3, §4

CSCC[C@@H]1NC(=O)[C@H](Cc2c[nH]c3ccccc23)NC(=O)CNC(=O)[C@H](CO)NC(=O)[C@H](C(C)C)NC(=O)[C@H](CC(N)=O)NC(=O)[C@H](CC(C)C)NC(=O)[C@H](Cc2ccccc2)NC1=O [c-151, M F L N V SGW] (cyclo(WMFLNVSG))
Ki (avian ATIC (AICAR Tfase)): 59 ± 6.8 µM
Activity Rank (ATIC homodimer): 1

GVRFF (cyclic, SICLOPPS-expressed; Ribonucleotide reductase inhibitor peptide) [RR127]
Effect on the lacZ reporter upon arabinose induction (ribonucleotide reductase): further enhanced
lacZ repression relief (ribonucleotide reductase): observable repression relief
Disruption of / competition with immobilized P8·mR1 complex [1]: none
Competition with the c-RR130·mR2 complex [2]: competed

HRYVF (cyclic, SICLOPPS-expressed; Ribonucleotide reductase inhibitor peptide) [RR133]
Effect on the lacZ reporter upon arabinose induction (ribonucleotide reductase): further enhanced
lacZ repression relief (ribonucleotide reductase): observable repression relief
Disruption of / competition with immobilized P8·mR1 complex [1]: none
Competition with the c-RR130·mR2 complex [2]: competed

M L L I V C (MLLIVC) [c-25]
Activity Rank (ATIC homodimer): 3

MSFTLDADF [pTHCP35, reference compound]
Repression of the lacZ reporter (ribonucleotide reductase; peptide co-expressed with ribonucleotide reductase fusion): relieved repression

P V L L L C (PVLLLC) [c-26]
Activity Rank (ATIC homodimer): 3

R F F I C C (RFFICC; also: cyclic peptide, ring type not given here) [c-4]
Activity Rank (ATIC homodimer): 2

R I L Q L C (RILQLC) [c-8]
Activity Rank (ATIC homodimer): 2

R I L V L C (RILVLC) [c-5]
Activity Rank (ATIC homodimer): 3

RYFNVC [l-1a, RYFNVC]
Ki (avian ATIC (AICAR Tfase)): 142 ± 22.5 µM

RYYNV (cyclo(RYYNV); not fully specified) [RR130]
Effect on the lacZ reporter upon arabinose induction (ribonucleotide reductase): arabinose-dependent repression
lacZ repression relief (ribonucleotide reductase): observable repression relief
Disruption of / competition with immobilized P8·mR1 complex [1]: none
Competition with the c-RR130·mR2 complex [2]: competed

S M M V L C (SMMVLC) [c-15]
Activity Rank (ATIC homodimer): 3

T V L M F C (TVLMFC) [c-6]
Activity Rank (ATIC homodimer): 3

WMFLNVSG [l-151]
Ki (avian ATIC (AICAR Tfase)): 173 ± 28.4 µM

YTWSY (cyclo(YTWSY); not fully specified) [RR93]
Effect on the lacZ reporter upon arabinose induction (ribonucleotide reductase): further enhanced
lacZ repression relief (ribonucleotide reductase): observable repression relief
